Test results published in patent US8597645.

Biological target: Caspase-8 (endogenous, in melanocytes and melanoma cells) (human) (UniProt Q14790)
Assay: cell-based or functional assay

Chain of Caspase-8 (endogenous, in melanocytes and melanoma cells) (human) (Q14790 whole entry): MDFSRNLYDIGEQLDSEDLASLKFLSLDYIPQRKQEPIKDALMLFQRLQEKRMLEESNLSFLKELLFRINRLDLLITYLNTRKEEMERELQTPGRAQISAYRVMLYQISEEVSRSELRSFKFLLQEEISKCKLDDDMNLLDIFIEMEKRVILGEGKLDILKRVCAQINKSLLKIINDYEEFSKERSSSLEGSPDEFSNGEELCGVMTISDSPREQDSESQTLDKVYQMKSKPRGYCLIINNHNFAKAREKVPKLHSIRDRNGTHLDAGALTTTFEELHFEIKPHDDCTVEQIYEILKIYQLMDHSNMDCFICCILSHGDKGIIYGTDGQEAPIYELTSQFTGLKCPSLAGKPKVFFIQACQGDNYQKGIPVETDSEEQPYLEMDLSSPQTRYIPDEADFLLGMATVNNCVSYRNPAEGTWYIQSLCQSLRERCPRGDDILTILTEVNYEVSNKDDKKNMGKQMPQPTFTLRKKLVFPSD

## Cell permeable caspase inhibitor containing the sequence DEVD (from UniProt P08620 7-22) (peptide)
  Concentration needed to block ET-1 induced E-cadherin down-regulation, relative to the 'IETD' inhibitor: 10 fold
